Sequences and labels used below:
B1: TRAIL mutant D269HT214R (ligand)
chain: VRERGPQRVAAHITGTRGRSNTLSSPNSKNEKALGRKINSWESSRSGHSFLSNLHLRNGELVIHEKGFYYIYSQTYFRFQEEIKENTKNDKQMVQYIYKYRSYPDPILLMKSARNSCWSKDAEYGLYSIYQGGIFELKENDRIFVSVTNEHLIDMHHEASFFGAFLVG
notes: also called T214R-D269H
B2: TRAIL mutant R191ED267R (ligand)
chain: B1 chain with R78E, R101T, D154R, H156D
B3: TRAIL mutant G160K (ligand)
chain: B1 chain with G47K, R101T, H156D
B4: TRAIL mutant R149D (ligand)
chain: B1 chain with R36D, R101T, H156D
B5: TRAIL mutant R149H (ligand)
chain: B1 chain with R36H, R101T, H156D
B6: TRAIL mutant R130E (ligand)
chain: B1 chain with R17E, R101T, H156D
B7: TRAIL mutant I220M (ligand)
chain: B1 chain with R101T, I107M, H156D
B8: TRAIL mutant E155M (ligand)
chain: B1 chain with E42M, R101T, H156D
B9: TRAIL mutant G131R (ligand)
chain: B1 chain with G18R, R101T, H156D
B10: TRAIL mutant D218F (ligand)
chain: B1 chain with R101T, D105F, H156D
B11: TRAIL mutant I220H (ligand)
chain: B1 chain with R101T, I107H, H156D
B12: TRAIL mutant D218R (ligand)
chain: B1 chain with R101T, D105R, H156D
B13: TRAIL mutant D218Y (ligand)
chain: B1 chain with R101T, D105Y, H156D
B14: TRAIL mutant G160M (ligand)
chain: B1 chain with G47M, R101T, H156D
B15: TRAIL mutant D269HM1 (D269H combined with M1: E194I, I196S) (ligand)
chain: B1 chain with E81I, I83S, R101T
B16: TRAIL mutant C1 (M1 + M3: E194I, I196S, S225A) (ligand)
chain: B1 chain with E81I, I83S, R101T, S112A, H156D
notes: Combination of M1 and M3 on soluble TRAIL 114-281
B17: TRAIL mutant M3 (S225A) (ligand)
chain: B1 chain with R101T, S112A, H156D
notes: Stability mutant built on soluble TRAIL 114-281
B18: TRAIL mutant D269H (ligand)
chain: B1 chain with R101T
B19: TRAIL mutant E195R (ligand)
chain: B1 chain with E82R, R101T, H156D
B20: TRAIL mutant M2 (D203I, Q205M, Y237F) (ligand)
chain: B1 chain with D90I, Q92M, R101T, Y124F, H156D
notes: as for B17
B21: TRAIL mutant M1 (E194I, I196S) (ligand)
chain: B1 chain with E81I, I83S, R101T, H156D
notes: as for B17
B22: TRAIL mutant D269HE195R (ligand)
chain: B1 chain with E82R, R101T
B23: TRAIL mutant D269K (ligand)
chain: B1 chain with R101T, H156K
B24: TRAIL mutant D269R (ligand)
chain: B1 chain with R101T, H156R

Residue numbers refer to the chain shown, from its start. Names and notes keep the numbering of the source.

For the first assay, the target named is T1, DR4 (TRAIL-R1) Fc, recombinant receptor from R&D Systems (UniProt O00220 24-239, limits assumed).
T1 construct: also called soluble TRAIL-R1 Fc; not shown: Fc part of the bought Fc fusion
T1 sequence (O00220 24-239 limits assumed): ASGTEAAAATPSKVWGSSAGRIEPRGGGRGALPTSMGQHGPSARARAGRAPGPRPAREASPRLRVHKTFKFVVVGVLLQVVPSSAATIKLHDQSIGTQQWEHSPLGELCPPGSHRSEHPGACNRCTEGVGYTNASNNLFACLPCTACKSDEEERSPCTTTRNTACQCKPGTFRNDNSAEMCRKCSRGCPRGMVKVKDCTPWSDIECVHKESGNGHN
The experiment in a line: SPR (Biacore 3000, 37 C): purified ligand at 60 nM over immobilised receptor Fc. On the technique in general: SPR reads the build-up and loss of mass on a sensor chip optically.
Take B1: the binding result is “no binding (tested: 60 nM)”. Same read-out and setting: the entry for B2 is “no binding (tested: 60 nM)”.

Another assay addresses T1, DR4 (TRAIL-R1) Fc, recombinant receptor …. The assay is described as follows: SPR (Biacore): clarified E. coli extract diluted 1:50 injected over immobilised DR4, DR5, DcR1 and RANK; bars are the response as a fraction of the DR5 response. On the procedure: (§1) Control extracts of BL21 (DE3) culture without an over-expression plasmid and of a BL21 (DE3) culture with plasmid over-expressing SH3 domain were also injected.
Consider B3, for which the binding result was “binds”. In the case of B4, the binding result is recorded as “binds”. As to B5, the binding result is given as “binds”. The same measure, in the same setting: the entry for B6 is “binds”; for B7 it is “binds”. On the same count and under the same terms, the entry for B8 is “binds”. Same read-out and setting: the value for B9 was “binds”.

For the molecule B10, the binding result was “binds”. On the same count and under the same terms, the entry for B11 is “binds”; for B12 it is “binds”.

With B13, the binding result is “binds”.

The next assay addresses T2, murine RANK (receptor) (murine, UniProt O35305 31-214, limits assumed).
T2 construct: Control surface in the SPR screening
T2 sequence (looked up): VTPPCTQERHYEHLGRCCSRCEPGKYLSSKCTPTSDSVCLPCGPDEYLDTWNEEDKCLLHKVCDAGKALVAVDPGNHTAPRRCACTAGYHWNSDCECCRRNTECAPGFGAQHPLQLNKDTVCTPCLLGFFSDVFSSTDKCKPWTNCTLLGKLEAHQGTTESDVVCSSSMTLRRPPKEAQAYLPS
The assay is described as follows: SPR (Biacore): clarified E. coli extract diluted 1:50 injected over immobilised DR4, DR5, DcR1 and RANK; bars are the response as a fraction of the DR4 response. As to the method: as §1
On to B3, for which the binding result is given as “no binding”. Still for that read-out and setting: the value for B6 was “no binding”; that for B14 was “no binding”. Same read-out and setting: the entry for B9 is “no binding”. In the case of B12, the binding result is recorded as “no binding”.

As for B13, the binding result is given as “no binding”.

For a further assay, the target named is T1, DR4 (TRAIL-R1) Fc, recombinant receptor …. The experiment in a line: SPR, receptor Fc immobilised, ligand 0.1 to 250 nM. On the procedure:
(§2) Binding experiments were performed using a surface plasmon resonance-based biosensor Biacore 3000 (Biacore AB, Uppsala, Sweden), at 37° C. Recombinant receptors were ordered from R&D systems (R&D systems, Minneapolis, Minn., USA). […] Receptors were coated at a level of ~600-800 RU. […] Between injections the receptor/sensor surface was regenerated using 30 µl of 3 M sodium acetate pH 5.2.
(§3) Combinations between the stability variants and selectivity variants described above can be made, giving variants with enhanced stability and altered selectivity/specificity. […] Mutants were tested for receptor binding and biological activity as described in Examples 1, 2 and 3.
As to B15, the “fold reduction in binding relative to wild-type TRAIL” value was > 8 fold.

The target in the next assay is T3, DR5 (TRAIL-R2) Fc, recombinant receptor from R&D Systems (UniProt O14763 54-182, limits assumed).
T3 construct: also called soluble TRAIL-R2 Fc; immobilized TRAIL-R2 Fc; not shown: Fc part of the bought Fc fusion
T3 sequence (O14763 54-182 limits assumed): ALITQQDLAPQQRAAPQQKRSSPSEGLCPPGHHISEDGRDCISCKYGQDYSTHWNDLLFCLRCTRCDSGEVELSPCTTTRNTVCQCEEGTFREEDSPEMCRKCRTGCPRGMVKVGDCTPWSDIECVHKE
The experiment in a line: SPR, receptor Fc immobilised, ligand 0.1 to 250 nM. On the procedure:
as §2, §3
With B15, the “fold improvement in binding relative to wild-type TRAIL” value is > 8 fold.

The target in another assay is T1, DR4 (TRAIL-R1) Fc, recombinant receptor …. The experiment in a line: SPR, Biacore 3000, 25 C, receptor amine-coupled to CM5 chip, ligand 2 ug/ml. On the procedure: (§4) Binding experiments were performed using a surface plasmon resonance-based biosensor Biacore 3000 (Biacore AB, Uppsala, Sweden), at 25° C. Recombinant receptors were ordered from R&D systems (R&D systems, Minneapolis, Minn., USA). Immobilization of the receptors on the sensor surface of a Biacore CM5 sensor chip was performed following a standard amine coupling procedure according to the manufacturer's instructions. A reference surface was generated simultaneously under the same conditions but without receptor injection and used as a blank to correct for instrument and buffer artifacts. […] Binding of ligands to the receptors was monitored in real-time. The receptor/sensor surface was regenerated using 3 M sodium acetate pH 5.2 injections.
As to B16, the binding result is recorded as “binds”. As for B17, the binding result was “binds”.

Another assay deals with T4, DcR1 (TRAIL-R3) Fc, recombinant receptor (UniProt O14798 26-221, limits assumed).
T4 construct: not shown: Fc part of the Fc fusion
T4 sequence (looked up): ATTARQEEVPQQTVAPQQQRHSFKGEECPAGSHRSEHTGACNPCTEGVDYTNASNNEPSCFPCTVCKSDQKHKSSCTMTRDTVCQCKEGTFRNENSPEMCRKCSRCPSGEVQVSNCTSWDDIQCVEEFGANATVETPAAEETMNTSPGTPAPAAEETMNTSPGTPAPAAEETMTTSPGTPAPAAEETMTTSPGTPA
The experiment in a line: SPR, Biacore 3000, 37 C, receptor Fc on CM5 chip. As to the method:
as §2
As for B18, the “fold decrease in binding compared to wild-type TRAIL” value was ~10 fold.

The target of a further assay is T1, DR4 (TRAIL-R1) Fc, recombinant receptor …. The experiment in a line: SPR, Biacore 3000, 37 C, receptor on chip, 1:1 Langmuir global fit, preliminary apparent Kd. On the procedure: (§5) Binding of the purified mutants was assessed in real time using surface plasmon resonance on a Biacore 3000 with a sensor chip as described above. […] Measurements performed at 37° C. to allow increased $koff$ and dissociation was monitored for 20 min. Measured $kon$ and $koff$ rates were used to calculate apparent K_d values for the mutants for the respective receptors. A global fit procedure was used and a 1:1 Langmuir interaction model.
For B14, the Kd turned out to be 0.4 nM. On the same count and under the same terms, the value for B18 was 0.6 nM.

The target in a further assay is T3, DR5 (TRAIL-R2) Fc, recombinant receptor …. Described as above. On the procedure: as §5
For the molecule B14, the Kd is 0.5 nM. Turning to B18, the Kd is < 0.4 nM.

The target of another assay is T1, DR4 (TRAIL-R1) Fc, recombinant receptor …. The assay is described as follows: SPR (Biacore), E. coli extracts diluted 1:50 over immobilised receptor. On the procedure: as §1
Take B19: the binding result is “binds”.

For another assay the target is unchanged. The experiment in a line: SPR (Biacore 3000, 25 C): ligand at 2 ug/ml injected over receptor amine-coupled to a CM5 chip. On the procedure: as §4
As to B20, the binding result was “binds”. The same measure, in the same setting: the entry for B21 is “binds”.

For a further assay the target is unchanged. The experiment in a line: SPR, Biacore 3000, 37 C, receptor Fc on CM5 chip, ligand 0.1-250 nM. On the procedure:
as §2
Consider B22, for which the “fold reduction in binding relative to wild-type TRAIL” value was > 15 fold. The same measure, in the same setting: the value for B23 was > 15 fold; that for B18 was > 15 fold; that for B24 was > 15 fold.

The target of another assay is T3, DR5 (TRAIL-R2) Fc, recombinant receptor …. The assay is described as above. As to the method: as §2
For the molecule B22, the “fold improvement in binding relative to wild-type TRAIL” value is > 10 fold. Still for that read-out and setting: the figure for B23 is > 10 fold. Turning to B18, the “fold improvement in binding relative to wild-type TRAIL” value is > 10 fold. As for B24, the “fold improvement in binding relative to wild-type TRAIL” value is > 10 fold.
